Blank lines part the entries; values can stand above or below the molecule they belong to.
Assays:
[1] = molecular target: CHS-syfp2 fusion (Arabidopsis) (UniProt P13114); experiment: FRET or BRET; frequency domain FLIM-FRET in Arabidopsis tt4-11 mesophyll protoplasts; donor MOS9-scfp3a, acceptor SYFP2 fusions; E from phase-shift lifetimes
[2] = molecular target: T1, recombinant chalcone synthase (CHS) (Arabidopsis, UniProt P13114 1-395); experiment: SPR; CHS immobilised by amine coupling on a planar PEG/carboxyl chip (Reichert SR7000); MOS9 0.1-1 uM flowed over in 10 mM HEPES pH 7.5, 150 mM NaCl, 1 mg/ml BSA, 50 ul/min; KD from Koff/Kon; details: both partners purified
T1 construct: chalcone synthase (CHS), Arabidopsis, At5g13930; The construct for recombinant CHS is not described; earlier work of the same laboratory may hold it (possibly with a carrier protein); also called recombinant CHS; source: E. coli BL21 (DE3) pLysS, purified (nickel column, FPLC)
T1 sequence (looked up): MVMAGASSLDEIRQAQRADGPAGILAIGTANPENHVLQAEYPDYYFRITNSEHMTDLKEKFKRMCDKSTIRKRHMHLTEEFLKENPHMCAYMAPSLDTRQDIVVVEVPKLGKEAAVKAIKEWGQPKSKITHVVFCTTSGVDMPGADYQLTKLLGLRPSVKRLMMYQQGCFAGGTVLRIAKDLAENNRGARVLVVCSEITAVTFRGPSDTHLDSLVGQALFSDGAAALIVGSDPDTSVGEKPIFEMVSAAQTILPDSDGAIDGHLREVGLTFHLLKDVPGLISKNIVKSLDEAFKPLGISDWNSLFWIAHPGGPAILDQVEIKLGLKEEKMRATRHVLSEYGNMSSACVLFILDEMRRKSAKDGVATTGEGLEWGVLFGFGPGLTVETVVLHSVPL

FRET efficiency E τ(φ) [1]: 6.5%
Molecule: MOS9-scfp3a fusion (natural protein)

Kd [2]: 210 nM
B1: MOS9::V5::6xHis recombinant protein (natural protein, Arabidopsis, UniProt F4IDT4 1-193, looked up)
chain: MMGMARKISKEEVVEKLKDDGDFDRLRLKIIRRLKENEDLRNNMISVVKESTSLKRHGAQNMKTRQLSDAIFEEVGSKMLSQLSDGLWGIIRSEDGMKNEIRETVQSVYATLSNPRGEKRGTSAREMEHKIPTPKKEARTDFNTSPASKQKQELIKGAVEDNKGEACSDDVQDNKGEAYNDDEEDPELPPGFG
notes: MOS9, Arabidopsis, At1g12530, coding region minus the stop codon (193 amino acids), from clone pENTR221-AT1G12530, recombined into pET-DEST42; Gateway recombination leaves linker residues between MOS9 and the tags; also called At1g12530 protein; recombinant protein generated in E. coli from At1g12530 cDNA; source: E. coli BL21 (DE3) pLysS, purified (nickel column, FPLC); not shown: V5, …
